The record followed here is article PMC8796303 (ACS Central Science, 2021).

In this experiment the target is SARS-CoV-2 spike protein (wild type) (SARS-CoV-2, ancestral (wild type, …, UniProt P0DTC2)). Nature of the experiment: lateral flow strip assay.

B1: REGN10933 (receptor binding domain binding antibody) (antibody, V domains shown)
VH: QVQLVESGGGLVKPGGSLRLSCAASGFTFSDYYMSWIRQAPGKGLEWVSYITYSGSTIYYADSVKGRFTISRDNAKSSLYLQMNSLRAEDTAVYYCARDRGTTMVPFDYWGQGTLVTVSS
VL: DIQMTQSPSSLSASVGDRVTITCQASQDITNYLNWYQQKPGKAPKLLIYAASNLETGVPSRFSGSGSGTDFTFTISGLQPEDIATYYCQQYDNLPLTFGGGTKVEIK
As for B1, the binding result is reported as “binds”.
